Data on 22 molecules can be found in patent US20120207760A1 (THERACLONE SCIENCES, published 2012).

For this test, the target named is Hemagglutinin of influenza A/Solomon Islands/3/06 (H1N1), on inactivated whole virions (Influenza A virus A/Solomon …). Kind of test: ELISA, B cell culture supernatant on inactivated whole virions.

B1: TCN-542 (5079_A16) (antibody, V domains shown)
VH: QVQLQESGPGLVKPSQTLSLTCTVSGGSISSGNYYWNWVRQHPGKGLEWIGYIYYRGSTFYNPSLKSRVTISIDTSKNQFSLRLSSVTAADTAVYYCAKDTRSSLDNYQYGMDVWGQGTTVTVSS
VL: QTVVTQEPSLTVSPGGTVTLTCASSTGAVTSSYFPNWFQQKPGQAPRPLIYSTTIRHSWTPARFSGSLLGGKAALTLSGVQPEDEADYYCLLYSGGDPVAFGGGTKLTVL
With B1, the OD450 is 3.66 OD450.

B2: TCN-540 (5060_F05) (antibody, V domains shown)
VH: QVQLVQSGGGVVQPGRSLRLSCAASGFTFSSYAMHWVRQAPGKGLEWVAIISYDGNDQYYTDSVKGRFTISRDSSKVYLQMHRLRPEDTAVYYCAKEFETSGYFHGSFDYWGQGILVTVSS
VL: QSALTQPASVSGSPGQSITISCTGTSSDVGGYNYVSWYQQHPGKAPKLLIYEVTNWPSGVSNRFSGSKSGNTASLTISGLQAEDEADYYCSSYAGSSTWVFGGGTRVTVL
In turn, B2 had an OD450 of 0.07 OD450.

B3: TCN-550 (5096_F06) (antibody, V domains shown)
VH: QVQLQESGPGLVKPSETLSLTCTVSGASINSHYWSWIRQPPGKGLEWIGYVYYSGSTTYNPSLKSRVTLSVDTSKNQFSLNLSSVTAADTAFYYCARHPYDVLTGSGDWFDPWGQGTLVTVSS
VL: SYVLTQAPSVSVAPGQTARITCGGNAIGSKKVHWYQHKAGQAPVLVVYDDTDRPSGIPERFSGSNSWSTATLTINRVEAGDEADYYCQVWDFTIDHVVFGGGTKLTVL
Turning to B3, the OD450 turned out to be 0.06 OD450.

B4: TCN-549 (5092_P04) (antibody, V domains shown)
VH: QVQLVQSGAEVKKPGASVKVSCKASGYTFTGYYMHWVRQAPGQGLEWMGWINPNSGDTNYAQKFQGRVTMTRDTSITTAYMELSSLRSDDTAVYYCARDSPYSSSWSFFDYWGQGPLVTVSS
VL: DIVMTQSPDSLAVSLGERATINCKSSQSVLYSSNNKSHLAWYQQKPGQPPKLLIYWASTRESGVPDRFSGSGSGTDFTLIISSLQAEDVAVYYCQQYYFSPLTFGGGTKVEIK
As to B4, the OD450 came out at 0.09 OD450.

B5: TCN-552 (5249_I23) (antibody, V domains shown)
VH: QVQVVQSGAEVKKPGSSVRVSCQASGGTFMNYAIIWVRRAPGQGLEWMGGIIPVFPTPNYAQMFQGRVTISTDESRSTSFLELTNLRYEDTAVYYCARRIYHGGNSGFDFWGQGTLVTVSS
VL: EIVLTQSPATLSLSPGERATLSCRASQSVGNYLAWYQQKPGQAPRLLIYDSSNRAPGIPARFSGSGSGTDFTLTISSLAPEDFAVYYCQQRSKWPPMYSFGHGTKLEIK
As to B5, the OD450 is 3.57 OD450.

B6: TCN-545 (5082_I15) (antibody, V domains shown)
VH: QVQLQQWGAGLLKPSETLSLSCAVFGGSFSDYYWTWIRQPPGKGLEWIGEIKHSGRTNYNPSLESRVTISVDTSKNQFSLKLSSVTAADTAIYYCARGTDPDTEGYCRSGSCSAFDFWGQGTLVTVSS
VL: EIVLTQSPGTLSLSPGERATLSCRASHFVNYRSLAWYQQTPGQVPRLLIYGASTRATGIPDRFSGSGSGTDFTLTISRLEPEDFAVYFCQQYGGSPRYTFGQGTRLEIK
Molecule B6 yielded an OD450 of 3.32 OD450.

B7: TCN-534 (5249_B02) (antibody, V domains shown)
VH: QVQLVQSGAEVKKPGSSVKVSCRESGGTFNGYTITWVRQAPGQGLEWMGGIIPMMGTVNYAQKLQGRVTITTDYFTKTAYMDLNNLRSEDTAMYYCVKIRYTGQQLLWGQGTLVTVSS
VL: DIQMTQSPSTLSASIGDRVTITCRASQSIASWLAWYQQKPGKAPKLLIYEAVNLESGVPSRFSGSGSGTDFTLTISSLQPDDFATYFCQHYGTISQTFGGGTKVEIK
B7 displayed an OD450 of 3.55 OD450.

B8: TCN-551 (5243_D01) (antibody, V domains shown)
VH: EVQLVQSGSEVKKPGESLKISCKGSGYSFSNYWIGWVRHMPGKGLEWMGIIYPGDSDTRYSPSFQGQVTMSADKSSSTVYLQWSSLKASDTAIYYCARRGGHSFGYGSGGDTHSEFDSWGQGTLVTVSS
VL: QSVLTQSPSVSAAPGQKVTISCSGSDSNIGDYFVCWYQHLPGKPPQLLIYENNKRPSGIPDRFSGSKSGTSATLGITGIQTGDEADYYCATWDGSLSAWVFGGGTKLTVL
B8 had an OD450 of 3.35 OD450.

B9: TCN-536 (5095_N01) (antibody, V domains shown)
VH: QVQLQQWGAGLLKPSETLSLTCAVYGGSFSVSGYYWSWIRQPPGRGLEWIGEISHGGSTNYNPSLKSRVTISVDTTKNQFSLRLSSVTAADTAVYYCARGTDPDTEVYCRVGNCAAFDYWGQGSLVTVSS
VL: EIILAQSPGTLSLSPGERATLSCRASQFVSTRSLAWYQQRPGQAPRLLIYGASSRATGIPDRFSGSGSGTDFTLTISRLEPEDFAVYYCQHYGYSPRYAFGQGSKVEIK
For the molecule B9, the OD450 turned out to be 3.63 OD450.

B10: TCN-532 (5262_H18) (antibody, V domains shown)
VH: QVQLQESGPGLVKPSETLSLTCTVSGGSVSSETYYWSWIRQPPGKGLEWIGYIYYIGNTDYRPSLKSRVTISLDTSKNQFSLKLSSVTAADTAVYYCARGAYYDSSGYPAFYIWGQGTMVTVSS
VL: QSVLTQPPSVSGAPGQRVTISCTGSSSNIGSDYDVHWYKQLPGTAPKLLIFGNSNRPSGVPDRFSGSKSGTSASLAITGLQAEDEADYYCQSYDSSLSGFHVFGSGTKVTVL
As for B10, the OD450 turned out to be 0.06 OD450.

B11: TCN-548 (5092_P01) (antibody, V domains shown)
VH: QVQLQESGPGLVKPSETLSLTCTVSSGPMSDYYWSWIRQPPGKGLEWIGHVSVSHGGRTKSNPSVMSRVTISVETSKNQFSLKLTSVTAADTAVYYCARLNYYDRSGYHSPDGPSNNWFDPWGQGTLVTVSS
VL: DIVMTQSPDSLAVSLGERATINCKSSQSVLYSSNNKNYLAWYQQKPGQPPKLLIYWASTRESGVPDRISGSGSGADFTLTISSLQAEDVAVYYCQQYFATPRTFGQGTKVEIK
The molecule B11 displayed an OD450 of 0.09 OD450.

B12: TCN-539 (5056_A08) (antibody, V domains shown)
VH: QVQLVESGGGVVQPGRSLRLSCAASEITFITYAMHWVRQAPGKGLEWVALISDDGSNKFYADSVKGRFTISRDNSKNTLYLQMNSLRAEDTAAYYCAREGVYFDSGTYRGYFDYWGQETLVTVSS
VL: EIVLTQSPATLSLSPGERATLSCRASQSVSSYLAWYQQKPGQAPRLLIYDASNRATGIPARFSGSGSGTDFTLTISSLEPEDFAVYYCQQRSHWPPITFGQGTRLEIK
Turning to B12, the OD450 was 0.06 OD450.

B13: TCN-547 (5092_F11) (antibody, V domains shown)
VH: QVQLQESGPGLVKPSQTLSLTCTVSGDSISSVDHYWSWIRQHPVKGLEWIGFMYYSASTYYNPSLKSRVTISTDTSKNQFSLRLSSVTAADTAVYYCARGTCAGDCSLHYYYYGLDVWGQGRTVTVSS
VL: DIQMTQSPSSLSASVGDRVTITCRASQSISSYLNWYQHKPGKAPKVLMYAVSILQSGVPSRFSGSGSGADFTLTISSLQPEDFATYYCQQSYSSPLTFGGGTKVEIK
As for B13, the OD450 came to 0.06 OD450.

B14: TCN-533 (5256_A17) (antibody, V domains shown)
VH: QVQLVQSGADVKKPGSSVTVSCKASGGSFSNYGINWVRQAPGQGLEWMGGIIPLINAPNYAPKFQGRVTITADMFSNIVSLQLTSLRTDDTAVYYCARRKMTTAIDYWGQGTLVTVSS
VL: QPVLSQPPSASASLGASVTLTCTLSSGFDNYQVAWYQQRPGKGPRFVMRVGNGGNVASKGDGIPDRFSVSGSGLNRYLTIKNIQEDDESDYYCGADHGSGNNFVSPYVFGGGTKLTVL
As for B14, the OD450 is 3.54 OD450.

B15: TCN-556 (5089_K12) (antibody, V domains shown)
VH: QVQLVQSGAEVKKPGASVKVSCKASGYTFIGYDMHWVRQAPGQGLEWMGWINAKRGGTNYAQKFQGRVTMTRDTSISTAYMELNSLRSDDTAVYYCARGVGSRTTIFGVLNPEFDYWGQGTLVTVSS
VL: QSALTQPPSASGSPGQSVTISCTGSSSDVGGYDYVSWYQQHPGKAPKLLIYEVTKRPSGVPDRFSGSKSGNTASLTVSGLQAEDEADYYCSSYAGNYNHVFGPGTKVTVL
For the molecule B15, the OD450 was found to be 2.7 OD450.

B16: TCN-535 (5246_P19) (antibody, V domains shown)
VH: QVQLVQSGSEVKKPGTSVKVSCTASGSVFTNYGISWVRQAPGQGLEWMGGIIPLFGAAKYAQKFQGRVTITADESTKTVYMELSRLTSKDTAIYFCAKAPRVYEYYFDQWGQGTPVTVSS
VL: EIVLTQSPGTLSLSPGERATLSCRASQSVSSSQLAWYQQKPGQAPRLIIYGASTRATGIPDRFSGSGSGTDFTLTIGRLEPEDFAVFFCQQYSTSPPTFGQGTKVDFK
Turning to B16, the OD450 was found to be 3.43 OD450.

B17: TCN-544 (5082_A19) (antibody, V domains shown)
VH: QVQLQESGPGLVKPSETLSLTCTVSRGSIGHYFWSWIRQPPGKGLEWIGYISYSGSTKYNPSLRSRVTISVDTSKNQFSLNLNSVTATDTALYYCAREDYDILTGAGPGMEVWGQGTTVTVSS
VL: QSMLTQPPSASGTPGQRVTISCSGSSSNIGSNTVNWFKHLPGTAPKLLIYRNDLRPSGVPDRFSGSKSGTSASLAISGLQSEDEADYYCATWDDSLNGFYVFGTGTKVTVL
B17: the OD450 is 0.32 OD450.

B18: TCN-557 (5081_A04) (antibody, V domains shown)
VH: QVQLVQSGAEVKKPGASVKVSCKASGHTFTGYYIHWVRQAPGQGLEWMGWINPDSGATSSAQNFQGRVTMTGDTSSSTAYMELSRLSFDDTAVYYCARVLFTSPFDFWGEGTLVTVSS
VL: QAVVTQEPSLAVSPGGTVTLTCGSSTGAVTRGHYPYWFQQKPGQAPRALIYDSAGNRHSWTPARFSGSLLGGKAALTLSGAQPEDEAEYYCLLSYSGVWVFGGGTKLTVL
B18 registered an OD450 of 2.32 OD450.

B19: TCN-543 (5081_G23) (antibody, V domains shown)
VH: QVHLVQSGAEVRKPGDSVKVSCKTSGYTFSTYPVAWVRQVPGQGLEWMGWISTYNGNTNFAQNFQGRVTLTTDTTTNTAYMEVRSLKFDDTAVYYCARVEGSYRDFWNNQNRFDPWGQGTLVTVSS
VL: SYVLTQPPSVSVAPGQTARISCGGSNIGGKSVHWYQQKPGQAPVLVVYDDSGRPSGIPERFSGSNSGDTATLTISRVEAGDEADYFCQVWDNFGGVFGTGTKVTVL
As to B19, the OD450 is 3.63 OD450.

B20: TCN-553 (5261_C18) (antibody, V domains shown)
VH: QVQVVQSGTEVKKPGSSVKVSCQTSGGRFMSYAITWVRQAPGQGLEWMGGIVPVFGTANYAQKFQGRVTITTDDSTRTAYMELSSLRSEDTAVYYCGFRYGSGYGFDSWGQGTLVTVSS
VL: EIVLTQSPGTLSLSPGERATLSCRASQSVSSSYLAWYQKKPGQAPRLLIYGASTRATGIPDRFTGSGSGTDFTLSISRLEPEDFAVYYCQHFGTSVFTFGGGTKVEIK
Consider B20, for which the OD450 was found to be 3.6 OD450.

B21: TCN-555 (5246_L16) (antibody, V domains shown)
VH: QVQLVQSGAEVKRPGSSVKVSCTASGGIFRKNAISWVRQAPGQGLEWMGGIIAVFNTANYAQKFQNRVKITADESGNTAYMELSSLTSDDTAVYYCASHPKYFYGSGSYPDFWGQGTLVTVSS
VL: QSALTQPRSVSGSPGQSITISCTGGSSDIGASNSVSWYQQHPGKAPKLVIFDVTERPSGVPHRFSGSKSGNTASLTVSGLQPDDEADYFCCAYGGKYLVVFGGGTKVTVL
B21: the OD450 is 2.89 OD450.

B22: TCN-546 (5089_L08) (antibody, V domains shown)
VH: QVQLQQWGAGLLKPSETLSLTCGVYGGSLSDYYWSWIRQPPGKGLEWIGEINHSGGTNYNPSLKRRVTISVDTSKKQFSLKMNSVTAADTAVYYCARGTDPDTEVYCRAGNCAAFDFWGQGTLVTVSS
VL: EIVLTQSPGTLSLSPGERATLSCRASHFVIGRAVAWYQQKPGQAPRLLIYGASSRATGIPDRFSGSGSGTDFTLTISRLETEDFAVFYCQHYGSSPRYAFGQGTKLEIK
The molecule B22 displayed an OD450 of 1.95 OD450.
